± gives the uncertainty stated by the source.
System: HEK293T
Assay: plasma membrane surface immunostaining intensity (anti-HA, deep receptor scanning) (arbitrary fluorescence units); higher = higher plasma membrane expression

Sequence	plasma membrane surface immunostaining intensity (GPCR class: A)	other results
MESENRTVIREFILLGLTQSQDIQLLVFVLVLIFYFIILPGNFLIIFTIKSDPGLTAPLYFFLGNLAFLDASYSFIVAPRMLVDFLSAKKIISYRGCITQLFFLHFLGGGEGLLLVVMAFDRYIAICRPLHYPTVMNPRTCYAMMLALWLGGFVHSIIQVVLILRLPFCGPNQLDNFFCDVPQVIKLACTDTFVVELLMVFNSGLMTLLCFLGLLASYAVILCRIRGSSSEAKNKAMSTCITHIIVIFFMFGPGIFIYTRPFRAFPADKVVSLFHTVIFPLLNPVIYTLRNQEVKASMKKVFNKHIA [OR4N2]		plasma membrane surface immunostaining intensity (GPCR class: A (Olfactory)): 134 ± 28
MSIMMLPMEQKIQWVPTSLQDITAVLGTEAYTEEDKSMVSHAQKSQHSCLSHSRWLRSPQVTGGSWDLRIRPSKDSSSFRQAQCLRKDPGANNHLESQGVRGTAGDADRELRGPSEKATAGQPRVTLLPTPHVSGLSQEFESHWPEIAERSPCVAGVIPVIYYSVLLGLGLPVSLLTAVALARLATRTRRPSYYYLLALTASDIIIQVVIVFAGFLLQGAVLARQVPQAVVRTANILEFAANHASVWIAILLTVDRYTALCHPLHHRAASSPGRTRRAIAAVLSAALLTGIPFYWWLDMWRDTDSPRTLDEVLKWAHCLTVYFIPCGVFLVTNSAIIHRLRRRGRSGLQPRVGKSTAILLGITTLFTLLWAPRVFVMLYHMYVAPVHRDWRVHLALDVANMVAMLHTAANFGLYCFVSKTFRATVRQVIHDAYLPCTLASQPEGMAAKPVMEPPGLPTGAEV [GPR142]	165 ± 58	
MGNCLHRAELSPSTENSSQLDFEDVWNSSYGVNDSFPDGDYGANLEAAAPCHSCNLLDDSALPFFILTSVLGILASSTVLFMLFRPLFRWQLCPGWPVLAQLAVGSALFSIVVPVLAPGLGSTRSSALCSLGYCVWYGSAFAQALLLGCHASLGHRLGAGQVPGLTLGLTVGIWGVAALLTLPVTLASGASGGLCTLIYSTELKALQATHTVACLAIFVLLPLGLFGAKGLKKALGMGPGPWMNILWAWFIFWWPHGVVLGLDFLVRSKLLLLSTCLAQQALDLLLNLAEALAILHCVATPLLLALFCHQATRTLLPSLPLPEGWSSHLDTLGSKS [ACKR1]	5030 ± 340	
METTMGFMDDNATNTSTSFLSVLNPHGAHATSFPFNFSYSDYDMPLDEDEDVTNSRTFFAAKIVIGMALVGIMLVCGIGNFIFIAALVRYKKLRNLTNLLIANLAISDFLVAIVCCPFEMDYYVVRQLSWEHGHVLCTSVNYLRTVSLYVSTNALLAIAIDRYLAIVHPLRPRMKCQTATGLIALVWTVSILIAIPSAYFTTETVLVIVKSQEKIFCGQIWPVDQQLYYKSYFLFIFGIEFVGPVVTMTLCYARISRELWFKAVPGFQTEQIRKRLRCRRKTVLVLMCILTAYVLCWAPFYGFTIVRDFFPTVFVKEKHYLTAFYIVECIAMSNSMINTLCFVTVKNDTVKYFKKIMLLHWKASYNGGKSSADLDLKTIGMPATEEVDCIRLK [PROKR1]	2260 ± 380	
MTSTCTNSTRESNSSHTCMPLSKMPISLAHGIIRSTVLVIFLAASFVGNIVLALVLQRKPQLLQVTNRFIFNLLVTDLLQISLVAPWVVATSVPLFWPLNSHFCTALVSLTHLFAFASVNTIVVVSVDRYLSIIHPLSYPSKMTQRRGYLLLYGTWIVAILQSTPPLYGWGQAAFDERNALCSMIWGASPSYTILSVVSFIVIPLIVMIACYSVVFCAARRQHALLYNVKRHSLEVRVKDCVENEDEEGAEKKEEFQDESEFRRQHEGEVKAKEGRMEAKDGSLKAKEGSTGTSESSVEARGSEEVRESSTVASDGSMEGKEGSTKVEENSMKADKGRTEVNQCSIDLGEDDMEFGEDDINFSEDDVEAVNIPESLPPSRRNSNSNPPLPRCYQCKAAKVIFIIIFSYVLSLGPYCFLAVLAVWVDVETQVPQWVITIIIWLFFLQCCIHPYVYGYMHKTIKKEIQDMLKKFFCKEKPPKEDSHPDLPGTEGGTEGKIVPSYDSATFP [GPR101]	3010 ± 110	
MAVQGSQRRLLGSLNSTPTAIPQLGLAANQTGARCLEVSISDGLFLSLGLVSLVENALVVATIAKNRNLHSPMYCFICCLALSDLLVSGSNVLETAVILLLEAGALVARAAVLQQLDNVIDVITCSSMLSSLCFLGAIAVDRYISIFYALRYHSIVTLPRARRAVAAIWVASVVFSTLFIAYYDHVAVLLCLVVFFLAMLVLMAVLYVHMLARACQHAQGIARLHKRQRPVHQGFGLKGAVTLTILLGIFFLCWGPFFLHLTLIVLCPEHPTCGCIFKNFNLFLALIICNAIIDPLIYAFHSQELRRTLKEVLTCSW [MC1R]	299 ± 43	
MTPTDFTSPIPNMADDYGSESTSSMEDYVNFNFTDFYCEKNNVRQFASHFLPPLYWLVFIVGALGNSLVILVYWYCTRVKTMTDMFLLNLAIADLLFLVTLPFWAIAAADQWKFQTFMCKVVNSMYKMNFYSCVLLIMCISVDRYIAIAQAMRAHTWREKRLLYSKMVCFTIWVLAAALCIPEILYSQIKEESGIAICTMVYPSDESTKLKSAVLTLKVILGFFLPFVVMACCYTIIIHTLIQAKKSSKHKALKVTITVLTVFVLSQFPYNCILLVQTIDAYAMFISNCAVSTNIDICFQVTQTIAFFHSCLNPVLYVFVGERFRRDLVKTLKNLGCISQAQWVSFTRREGSLKLSSMLLETTSGALSL [CCR9]	4060 ± 290	
MESSFSFGVILAVLASLIIATNTLVAVAVLLLIHKNDGVSLCFTLNLAVADTLIGVAISGLLTDQLSSPSRPTQKTLCSLRMAFVTSSAAASVLTVMLITFDRYLAIKQPFRYLKIMSGFVAGACIAGLWLVSYLIGFLPLGIPMFQQTAYKGQCSFFAVFHPHFVLTLSCVGFFPAMLLFVFFYCDMLKIASMHSQQIRKMEHAGAMAGGYRSPRTPSDFKALRTVSVLIGSFALSWTPFLITGIVQVACQECHLYLVLERYLWLLGVGNSLLNPLIYAYWQKEVRLQLYHMALGVKKVLTSFLLFLSARNCGPERPRESSCHIVTISSSEFDG [GPR119]	702 ± 99	
MRFTFTSRCLALFLLLNHPTPILPAFSNQTYPTIEPKPFLYVVGRKKMMDAQYKCYDRMQQLPAYQGEGPYCNRTWDGWLCWDDTPAGVLSYQFCPDYFPDFDPSEKVTKYCDEKGVWFKHPENNRTWSNYTMCNAFTPEKLKNAYVLYYLAIVGHSLSIFTLVISLGIFVFFRSLGCQRVTLHKNMFLTYILNSMIIIIHLVEVVPNGELVRRDPVSCKILHFFHQYMMACNYFWMLCEGIYLHTLIVVAVFTEKQRLRWYYLLGWGFPLVPTTIHAITRAVYFNDNCWLSVETHLLYIIHGPVMAALVVNFFFLLNIVRVLVTKMRETHEAESHMYLKAVKATMILVPLLGIQFVVFPWRPSNKMLGKIYDYVMHSLIHFQGFFVATIYCFCNNEVQTTVKRQWAQFKIQWNQRWGRRPSNRSARAAAAAAEAGDIPIYICHQELRNEPANNQGEESAEIIPLNIIEQESSA [CALCR]		plasma membrane surface immunostaining intensity (GPCR class: B): 5000 ± 720
MLAAAFADSNSSSMNVSFAHLHFAGGYLPSDSQDWRTIIPALLVAVCLVGFVGNLCVIGILLHNAWKGKPSMIHSLILNLSLADLSLLLFSAPIRATAYSKSVWDLGWFVCKSSDWFIHTCMAAKSLTIVVVAKVCFMYASDPAKQVSIHNYTIWSVLVAIWTVASLLPLPEWFFSTIRHHEGVEMCLVDVPAVAEEFMSMFGKLYPLLAFGLPLFFASFYFWRAYDQCKKRGTKTQNLRNQIRSKQVTVMLLSIAIISALLWLPEWVAWLWVWHLKAAGPAPPQGFIALSQVLMFSISSANPLIFLVMSEEFREGLKGVWKWMITKKPPTVSESQETPAGNSEGLPDKVPSPESPASIPEKEKPSSPSSGKGKTEKAEIPILPDVEQFWHERDTVPSVQDNDPIPWEHEDQETGEGVK [GPR151]	5990 ± 230	
MQLNNNVTEFILLGLTQDPFWKKIVFVIFLRLYLGTLLGNLLIIISVKTSQALKNPMFFFLFYLSLSDTCLSTSITPRMIVDALLKKTTISFSECMIQVFSSHVFGCLEIFILILTAVDRYVDICKPLHYMTIISQWVCGVLMAVAWVGSCVHSLVQIFLALSLPFCGPNVINHCFCDLQPLLKQACSETYVVNLLLVSNSGAICAVSYVMLIFSYVIFLHSLRNHSAEVIKKALSTCVSHIIVVILFFGPCIFMYTCLATVFPMDKMIAVFYTVGTSFLNPVIYTLKNTEVKSAMRKLWSKKLITDDKR [OR4C16]		plasma membrane surface immunostaining intensity (GPCR class: A (Olfactory)): 162 ± 72
MAANVSGAKSCPANFLAAADDKLSGFQGDFLWPILVVEFLVAVASNGLALYRFSIRKQRPWHPAVVFSVQLAVSDLLCALTLPPLAAYLYPPKHWRYGEAACRLERFLFTCNLLGSVIFITCISLNRYLGIVHPFFARSHLRPKHAWAVSAAGWVLAALLAMPTLSFSHLKRPQQGAGNCSVARPEACIKCLGTADHGLAAYRAYSLVLAGLGCGLPLLLTLAAYGALGRAVLRSPGMTVAEKLRVAALVASGVALYASSYVPYHIMRVLNVDARRRWSTRCPSFADIAQATAALELGPYVGYQVMRGLMPLAFCVHPLLYMAAVPSLGCCCRHCPGYRDSWNPEDAKSTGQALPLNATAAPKPSEPQSRELSQ [P2RY11]	4350 ± 520	
MQMADAATIATMNKAAGGDKLAELFSLVPDLLEAANTSGNASLQLPDLWWELGLELPDGAPPGHPPGSGGAESADTEARVRILISVVYWVVCALGLAGNLLVLYLMKSMQGWRKSSINLFVTNLALTDFQFVLTLPFWAVENALDFKWPFGKAMCKIVSMVTSMNMYASVFFLTAMSVTRYHSVASALKSHRTRGHGRGDCCGRSLGDSCCFSAKALCVWIWALAALASLPSAIFSTTVKVMGEELCLVRFPDKLLGRDRQFWLGLYHSQKVLLGFVLPLGIIILCYLLLVRFIADRRAAGTKGGAAVAGGRPTGASARRLSKVTKSVTIVVLSFFLCWLPNQALTTWSILIKFNAVPFSQEYFLCQVYAFPVSVCLAHSNSCLNPVLYCLVRREFRKALKSLLWRIASPSITSMRPFTATTKPEHEDQGLQAPAPPHAAAEPDLLYYPPGVVVYSGGRYDLLPSSSAY [RXFP3]	979 ± 290	
MLPDWKSSLILMAYIIIFLTGLPANLLALRAFVGRIRQPQPAPVHILLLSLTLADLLLLLLLPFKIIEAASNFRWYLPKVVCALTSFGFYSSIYCSTWLLAGISIERYLGVAFPVQYKLSRRPLYGVIAALVAWVMSFGHCTIVIIVQYLNTTEQVRSGNEITCYENFTDNQLDVVLPVRLELCLVLFFIPMAVTIFCYWRFVWIMLSQPLVGAQRRRRAVGLAVVTLLNFLVCFGPYNVSHLVGYHQRKSPWWRSIAVVFSSLNASLDPLLFYFSSSVVRRAFGRGLQVLRNQGSSLLGRRGKDTAEGTNEDRGVGQGEGMPSSDFTTE [FFAR2]	3600 ± 470	
MSQVTNTTQEGIYFILTDIPGFEASHIWISIPVCCLYTISIMGNTTILTVIRTEPSVHQRMYLFLSMLALTDLGLTLTTLPTVMQLLWFNVRRISSEACFAQFFFLHGFSFMESSVLLAMSVDCYVAICCPLHYASILTNEVIGRTGLAIICCCVLAVLPSLFLLKRLPFCHSHLLSRSYCLHQDMIRLVCADIRLNSWYGFALALLIIIVDPLLIVISYTLILKNILGTATWAERLRALNNCLSHILAVLVLYIPMVGVSMTHRFAKHASPLVHVIMANIYLLAPPVMNPIIYSVKNKQIQWGMLNFLSLKNMHSR [OR51Q1]		plasma membrane surface immunostaining intensity (GPCR class: A (Olfactory)): 152 ± 70
MESSGNPESTTFFYYDLQSQPCENQAWVFATLATTVLYCLVFLLSLVGNSLVLWVLVKYESLESLTNIFILNLCLSDLVFACLLPVWISPYHWGWVLGDFLCKLLNMIFSISLYSSIFFLTIMTIHRYLSVVSPLSTLRVPTLRCRVLVTMAVWVASILSSILDTIFHKVLSSGCDYSELTWYLTSVYQHNLFFLLSLGIILFCYVEILRTLFRSRSKRRHRTVKLIFAIVVAYFLSWGPYNFTLFLQTLFRTQIIRSCEAKQQLEYALLICRNLAFSHCCFNPVLYVFVGVKFRTHLKHVLRQFWFCRLQAPSPASIPHSPGAFAYEGASFY [XCR1]	190 ± 16	
